Source: the DeepSol protein solubility set

Assay: soluble on expression in E. coli; label from the status in PepcDB or PDB records

Sequence | soluble on expression in E. coli
MGHHHHHHENLYFQSHLYFQSHDCGSAVTERPKAAPIPTVNPEGKLKKEPNMFSPTLMLPGLGTLSSSQMYPACSQMPTQPAQLGPGKQDTLHSCWQQLYSPSPSASSLLSLHSHSSFTAEVPQPGAQGSSSLPAYNPLNWPDEKNSSFYRNFGNTHGMGAALVSAAGMQSVSSSSIVQGTHQASATTASIMTMPRTPGEVPFLRQQVGYRS | not soluble
MGANTKYKDSVFSLLFSDPDLLRELYCALEGVSLPADIPVTINTLRDALFMGMINDISFEIGGKLIILIEHQSTINPNMALRLLMYIARVYEKLIGDRNIYSSRLIHIPRPEFYVLYNGVTPYPDRTTLKLSDMFEKAGAFGLPEKGSAALELEVNVININEGKNEVIAKKCKTLAGYSAFVAKVRAFEKEIGDKTEAMKQAVRYCRDHDILKEFLEQNGTEVMNMLINEWNIEDAKKVWYEDGLSQGLEKGLEKGREEGREEESFSIAQNLVKLGLPIETIISATQLDPDKVKALYQQ | soluble
MGSDKIHHHHHHMITEKVLSYKSPLYGRRTGSLKLRPMNFFTLREFFPSCSWEELVEIYGMTDGIPFYIIQVKPPFWELLEEELKNPISFFKDEVDFLLRYEFSEVTTYKRILEAIALGKTTLKEIKDFTGLRNSDITPYLRNLIEADLIVREVPITEKKTSKKGRYYVLDNFLAFWFRFIYPNLSRIEEGIFNVDEIKGEYPRYLGWVFEKIARQFLIELNKINKLPFKFEKIGRWWYKEEEIDIVALNEREKKGLLVEVKWKTLKEREAREILEVLNKKSKLLGLEGWEKYYGLIAREIKRKEPLIEDGYLVWDLEDFEEIVKQKSREGL | not soluble
MSFFEQYRTGNLVLPNALFFHFKDIFPSADDFLVWQFLYLQTTTQIGEVASSQIAQATGKTPTEVNKSITTLTEAGLLDFTTVKVNNEIKMVVDASPALAVLDKLVSSENSTTGPVAGQPTNTQLIKQLTDELEQALGILNPMVIEDLNKEIQEEHTDPELIREALKEAVFNRKTNWNYIKGVLRNWKLSGITTKIQVEERRLEHQGKKQHHQVSDEFKTGMDAARQLWGGQ | not soluble
EVQLVESGGGLVQPGGSLRLSCAASGFNIKEYYMHWVRQAPGKGLEWVGLIDPEQGNTIYDPKFQDRATISADNSKNTAYLQMNSLRAEDTAVYYCARDTAAYFDYWGQGTLVTVSSASTKGPSVFPLAPSSKSTSGGTAALGCLVKDYFPEPVTVSWNSGALTSGVHTFPAVLQSSGLYSLSSVVTVPSSSLGTQTYICNVNHKPSNTKVDKKVEPKSCDKTHT | soluble
MQKFDTRTFQGLILTLQDYWARQGCTIVQPLDMEVGAGTSHPMTCLRELGPEPMAAAYVQPSRRPTDGRYGENPNRLQHYYQFQVVIKPSPDNIQELYLGSLKELGMDPTIHDIRFVEDNWENPTLGAWGLGWEVWLNGMEVTQFTYFQQVGGLECKPVTGEITYGLERLAMYIQGVDSVYDLVWSDGPLGKTTYGDVFHQNEVEQSTYNFEYADVDFLFTCFEQYEKEAQQLLALENPLPLPAYERILKAAHSFNLLDARKAISVTERQRYILRIRTLTKAVAEAYYASREALGFPMCNKDKLEHHHHHH | not soluble
MSSIVEHVVLFKLNDDDVDSGKINSMVNGINELVNLDQVLHLYCGSIHRLITTTASDFTHVLHSRYRSKEDLNAYAIHPDHVRVVKESESIREDIMAVDWIAEQAPEALAPPLGSIGKITLLKLKENVMEEAKLEIMEVMKEKFEGIDQITVGENFSPGRSKDFSIGSISYFRDLGEIEAVDDQMKLQNDKIRDYVDDTIVVEFNVPSSS | soluble
MPYLIIEHLEKISEWLLLEYRHTAQWWGDKLIFTNVKEPEERKILAEIGSVVAESVTKLPFDKSKLIILDPFAEEELKPEDIEEDSLIVVGGILGDFEFTGKTKEFITSKIEGAKARHIGSVQFSIDGASIIAKLISEGKRLEEIEYVESPTIKLDEFSEITLHYAVPKVNGKLLLTPGLIELQKKELGYMEEDVEDEELEKLFGGSLEHHHHHH | soluble
MGSDKIHHHHHHMKKIGLTTTVPIEVLLSAGYTPIDLNNIFVGSKDYSKYIDIAEKDGFPKSLCAWIKGIYGACISNDIKEIVGVHDGDCSNTKALTEVLSMKGIKVYPFSYPSSHNINDVKDELDAFMNLFHVTLNQVEKIRTRLNKLRELGIEIDKLTFEDNKATALENHIWQISFSDLNGDIDAFNSDLIKTIADIKKREASSSKLRLGYIGVPPMTPDIYEFVTNFDAKIVYNEVQREFAFPRSSKAKDIYEQYFDYTYPYDVYFRIDEISRQIEERHIDGIIHYTQAFCYRAVQDIVIKEKLRVPVINIEGDRLNHLDARTKLRLEAFLDMLLDSKEGIF | not soluble
MMSACSDFLDREPLTTPNSETFLSNASAVNNYINGLYIALPSFGTYDMGVRGEEKNSDNIVAEVYDKRLNGELQENGGGTTEWQKGYQNLRNVNYFFEYYKVPETEETKDVLSMKGEAYFFRAYWHFYLLTRFGSIPVMDRFWDGNATVGGLQIPPRDRSAVAQFILDDLNTAKGLLHSRSQYKGLRVCKEAAIIMAMRVALYEGTWEKYHKGTDFAAAEDKSADLLGQVLTLGDELFGMGLALNTKATDKNAVNIEDAYAHIFNSKDLSDMTEVVFWKKYSIADGVIHNLSSNLGAGYVDNSGPAGLSQSLVDNYLNADGTPINPADGIFKDFNLTFKGRDGRLLATVMHSNCKFKSTSPESKSKAMLVEEYSEENKQIVRPPYLTEGGPARNATGYHIRMSIDTTYVSGQGETSLPVIRYAEALLAYAEAAEELGKCTPAVLEKTLKPLRERAGVTYKDPSEIDPNFTDFGYTISANLQEIRRERRAELALQGFRLDDLMRWRAHKLIQGKRGTGAYFGTDGVLYKAFDPKNAADLKTILTTDGWLDPQKELLPRGYQFDANRDYLLPVPPSEISLNHELKQNPGWQRK | not soluble
PFSWMRYIVISRKDLEEDGREILIHEMAHIQNRHSIDLLVADICIFFQWFNPGIWLLKQELQNIHEYEADETVINEGIDAKDYQLLLI | not soluble
MCMYEADVRINGTLIWYYFICKREVWLISHGITADQEDENIEIGRFIHENAYSREKKEIDFDNFKVDVADSIDGKIIVQEVKKSSKFKKSARMQLLFYIYEIKKSGIDARGILLFPEERKREEVVLDEASQKELDSVIKDIFKIVNLEKPPIPEKCKYCRNCAYSELCWA | not soluble
GPWKGGRGRAASLLPLNRALGTTRPHKEGEVPGVDYIFITVEDFMELEKSGALLESGTYEDNYYGTPKPPAEPAPLLLNVTDQILPGATPSAEGKRKRNKSVSNMEKASIEPPEEEEEERPVVNGNGVVVTPESSEHEDKSAGASGEMPSQPYPAPVYSQPEELKEQMDDTKPTKPEDNEEPDPLPDNWEMAYTEKGEVYFIDHNTKTTSWLDPRLAKKAKPPEECKENELPYGWEKIDDPIYGTYYVDHINRRTQFENPVLEAKRKLQQHNMPHTELGTKPLQAPGFREKPLFTRDASQLKGTFLSTTLKKSNMGFGFTIIGGDEPDEFLQVKSVIPDGPAAQDGKMETGDVIVYINEVCVLGHTHADVVKLFQSVPIGQSVNLVLCRGYPLPFDPEDPANSMVPPLAIMERPPPVMVNGRHNYETYLEYISRTSQSVPDITDRPPHSLHSMPTDGQLDGTYPPPVHDDNVSMASSGATQAELMTLTIVKGAQGFGFTIADSPTGQRVKQILDIQGCPGLCEGDLIVEINQQNVQNLSHTEVVDILKDCPIGSETSLIIHRGGFFSPWKTPKPIMDRWENQGSPQTSLSAPAIPQNLPFPPALHRSSFPDSTEAFDPRKPDPYELYEKSRAIYESRRPDYKELDVHLRRMESGFGFRILGGDEPGQPILIGAVIAMGSADRDGRLHPGDELVYVDGIPVAGKTHRYVIDLMHHAARNGQVNLTVRRKVLCGGEPCPENGRSPGSVSTHHSSPRSDYATYTNSNHAAPSSNASPPEGFASHSLQTSDVVIHRKENEGFGFVIISSLNRPESGSTITVPHKIGRIIDGSPADRCAKLKVGDRILAVNGQSIINMPHADIVKLIKDAGLSVTLRIIPQEELNSPTSAPSSEKQSPMAQQSPLAQQSPLAQPSPATPNSPIAQPAPPQPLQLQGHENSYRSEVKARQDVKPDIRQPPFTDYRQPPLDYRQPPGGDYQQPPPLDYRQPPLLDYRQHSPDTRQYPLSDYRQPQDFDYFTVDMEKGAKGFGFSIRGGREYKMDLYVLRLAEDGPAIRNGRMRVGDQIIEINGESTRDMTHARAIELIKSGGRRVRLLLKRGTGQVPEYDEPAPWSSPAAAAPGLPEVGVSLDDGLAPFSPSHPAPPSDPSHQISPGPTWDIKREHDVRKPKELSACGQKKQRLGEQRERSASPQRAARPRLEEAPGGQGRPEAGRPASEARAPGLAAADAADAARAGGKEAPRAAAGSELCRREGPGAAPAFAGPGGGGSGALEAEGRAGARAGPRPGPRPPGGAPARKAAVAPGPWKVPGSDKLPSVLKPGASAASR | soluble
PMFEAAYDFPGSGSPSELPLKKGDVIYITREEPSGWSLGKLLDGSKEGWVPTAYMKPH | soluble
MGSDKIHHHHHHMTKLTAHPQTEGAFTVASLEFLKQLAQHNSRDWFKTHQDEYENTIRTPALRFIEQIQPHIIAISPRLTAVAKKVGGSLMRPQRDSRFSKDKTPYKTNIGIQFRHFQGKDVHAPGLYLHIAEDGCFIAAGIWHPESKALNAIRTCIDENPNGYKKALQSLTNHGFMMDGDSLTRPPKGFDKHHPMLTELKRKDFIAVKNIPFERLCQRDAVHYCAEQLAHCSQLMAYLCFALELDF | not soluble
MSTETHYKRQLFVILKLFIIMSFMTKCPKCPTYESKKTTNVYRHLREVHNASEAEVDQFRIQRKEGKSLTTKGSGAWKCPVCELVIPTEKGLKNHMNQKHRKKPIDPSTITLATTSPTMVSPPPKRIQLPKSTEKSLVSSVATVRAQPTQKPGGRYKCPVENCTFFKTRKELALHFSEKHDPGSELETMSFETETEFKIWLTCRQEETCSSMQISLSSHDGNRITHFRLCRHEGGQLSLGATKKGATFELSLGATN | not soluble
MGSDKIHHHHHHMIHIRPFQHQDADYRVMADVYNALAPDAPLSAIEWRIRDEIHNPNLPLCRWIGELDGRAGGYAEYYQPTWCADPTHLEMQIVVHPAVQGRGLGRALWQHLQMAWQPLRPHHIWLKVREDWQAGLMFAGRRQFHESRRVWVSRLDLATFDPQPFSGSIERVTAQQIELISFAALATADQGFWQQLYEFERQTTGDVPSPFPVTMPTYDQWIKLYQPDHGALWEGSFAAVHEGQIVGISTLETIDDSTDVEVGFTAVRRDYRGRGIALALKLCTIAYAGAQGLSGIRTDNDSTNLAMWHINERLGFRRGPVWIVLHRCEQNEEVT | not soluble
MAHHHHHHMSLLRMCYRSIDITVKSRHARTFLKKRLMEQWAAKCKEPNPEKQRFYMDLAGSFLQALHTERNPKPGKVVNFQLSRQVAYEQKLADREKSAGARRVRRMSKEVKTQDH | not soluble
MSLDNQLINSIIEKYQFSKKQIEAVLTLLEEKNTVPFIARYRKEQTGGLDEVQIKQIDDEYQYMVNLQKRKEEVIKNIEQQGLLTEELKKDILKQNKLQRVEDLYRPFKQKKKTRATEAKRKGLEPLAIWMKARKHEVSIEEKAQQFINEEVQSVEDAIKGAQDIIAEQISDNPKYRTKILKDMYHQGVLTTSKKKNAEDEKGIFEMYYAYSEPIKRIANHRVLAVNRGEKEKVLSVKFEFDTTSVEDFIARQEINHNNVNRSYILEAIKDSLKRLIVPSIEREIHADLTEKAENHAIDVFSENLRNLLLQPPMKGKQILGVDPAFRTGCKLAVINPFGTFIAKGVIYPHPPVSKKEAAEKDFVQMVKAYDVQLIAIGNGTASRETEQFVADLIKKHQLPVQFIIVNEAGASVYSASEIARDEFPDFQVEERNAVSIGRHVQDPLSELVKIDPKSIGVGQYQHDFFQEGHHHHHH | soluble
GAMVETKCPNLDIVTSSGEFHCSGCVEHMPEFSYMYWLAKDMKSDEDTKFIEHLGDGINEDETVRTTDGGITTLRKVLHVTDTNKFAHYRFTCVLTTLDGVSKKNIWLK | soluble
